Biological target: PD-L1 (blocking assay of Example 11) (UniProt Q9NZQ7)
Sequence (Q9NZQ7 19-239 limits assumed): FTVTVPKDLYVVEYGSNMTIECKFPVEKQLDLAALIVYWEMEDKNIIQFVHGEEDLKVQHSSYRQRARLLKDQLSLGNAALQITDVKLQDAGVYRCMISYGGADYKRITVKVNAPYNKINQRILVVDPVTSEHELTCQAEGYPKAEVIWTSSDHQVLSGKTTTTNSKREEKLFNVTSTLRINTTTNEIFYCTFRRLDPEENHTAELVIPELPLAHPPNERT

| Substance | EC50 printed for a flat curve: luminescence stays at the baseline of about 50000 RLU up to Log10 about 2.2 nM (no blockade), PD-1/PD-L1 Blockade Assay | EC50, luminescence (RLU) in the PD-1/PD-L1 Blockade Assay |
| --- | --- | --- |
| Human IgG1 (antibody) | 39.5 pM | – |
| Tecentriq (antibody) | – | 0.318 nM |
